Experimental data reported in the supplement of paper PMC10899765.

Key:
Details in all cases: 20 nM; 72 h
MCF10A [1] = assay: percent viability (nuclei count relative to siNT); higher = more viable cells
Experimental: (§1)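 After 72 h, cells were fixed and stained with Hoechst and anti-fibrillarin, and nucleoli per nucleus were counted with CellProfiler. Values are plate-adjusted percent effect for the one-nucleolus and 5+ nucleoli phenotypes, normalised to siNT (0%) and to the positive controls siNOL11 or siKIF11 (100%), as the mean of biological triplicates. Percent viability is the nuclei count relative to siNT.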

MCF10A [2] = assay: 5+ nucleoli phenotype percent effect (relative to siNT 0% and siKIF11 100%); higher = more cells with five or more nucleoli
Experimental: as §1

MCF10A [3] = assay: one-nucleolus phenotype percent effect (relative to siNT 0% and siNOL11 100%); higher = more cells with one nucleolus (ribosome biogenesis inhibition)
Experimental: as §1

Row | Sequence | percent viability (MCF10A [1]) [%] | 5+ nucleoli phenotype percent effect (MCF10A [2]) [%] | one-nucleolus phenotype percent effect (MCF10A [3]) [%]
1 | CACUGUGGGUACAUGCU [hsa-miR-4318] | 35.1 | -33 | 65.2
2 | UCUGGCUGUUGUGGUGUGCAA [hsa-miR-3064-5p] | 17.8 | -22.7 | 46.2
3 | CCCGGCCGGAACGCCGCACU [hsa-miR-6850-3p] | 65.7 | 23.1 | -20.3
4 | GCAGGAACUUGUGAGUCUCCU [hsa-miR-873-5p] | 122 | 31.2 | -17.4
5 | CACACACUGCAAUUACUUUUGC [hsa-miR-603] | 60.9 | 19.5 | -5.16
6 | CACCGGGGAUGGCAGAGGGUCG [hsa-miR-4655-5p] | 16.1 | 15 | 24.6
7 | CCCUCUCUGGCUCCUCCCCAAA [hsa-miR-4723-3p] | 114 | 50.7 | -23.7
8 | CUAAGAAGUUGACUGAAG [hsa-miR-3653] | 42 | -37.5 | 49.1
9 | CCCCGGGGAGCCCGGCG [hsa-miR-4532] | 148 | 45.2 | -24.8
10 | CAAAGAGGAAGGUCCCAUUAC [hsa-miR-583] | 69.2 | -24.7 | 27.5
11 | AGGUAGAAUGAGGCCUGACAU [hsa-miR-4650-3p] | 33.4 | -12.9 | 7.9
12 | CAGCCUGACAGGAACAG [hsa-miR-4293] | 33.8 | 4.42 | -6.3
13 | GUGAAGGCCCGGCGGAGA [hsa-miR-6126] | 77.8 | -28.6 | -11.8
14 | UUAGAACGUUUUAGGGUCAAAU [hsa-miR-5687] | 50.5 | 16.2 | -12.4
15 | UUCUAGAUGAGAGAUAUAUAUA [hsa-miR-4777-5p] | 34.7 | -25.9 | 29.8
16 | UGUCACCCGCUCCUUGCCCAG [hsa-miR-6879-3p] | 47.6 | -23.3 | 3.65
17 | AUAUUACCAUUAGCUCAUCUUU [hsa-miR-556-3p] | 46.5 | -10.1 | -7.76
18 | AGGCUGGGCUGGGACGGA [hsa-miR-4505] | 12.3 | 21.9 | 32.2
19 | AGCUACAUCUGGCUACUGGGU [hsa-miR-222-3p] | 71.6 | -9.89 | -5.3
20 | CAUCUUACCGGACAGUGCUGGA [hsa-miR-200a-5p] | 56 | -26 | 5.98
21 | UCAGCUGGCCCUCAUUUC [hsa-miR-1207-3p] | 15.3 | -48.5 | 65
22 | UGAGAACUGAAUUCCAUGGGUU [hsa-miR-146a-5p] | 51.1 | -31.6 | 9.23
23 | UUCACCACCUUCUCCACCCAGC [hsa-miR-197-3p] | 28.8 | -10 | 10.8
24 | UAGGGGGCGGCUUGUGGAGUGU [hsa-miR-6805-5p] | 27 | 0.0052 | 18.2
